In general, EC50 refers to the concentration that produces a half-maximal response.

Assay [1] deals with HIV-1IIIB gp120/gp41 stably expressed on CHO cells (HIV-1 IIIB). Nature of the assay: cell-based or functional assay.
Assay [2] has as its target recombinant gp120 from the primary isolate HIV-1JR-FL (HIV-1 JR-FL) (UniProt P20871). Nature of the assay: modified ELISA; gp120 captured on plate, CD4-IgG2 titrated, 1 h at 37 C, 50% of maximal binding. On the technique in general: An ELISA detects its analyte on a solid surface through an enzyme-linked reagent.
Assay [3] concerns the target recombinant gp120 from the laboratory-adapted strain HIV-1LAI (HIV-1 LAI) (UniProt P03377). The assay is described as above.

“CD4-IgG2 chimeric heterotetramer (Fc fusion)”: in assay [1], the IC50 (nM), syncytium inhibition stood at 9 nM; the IC50 (µg/ml), syncytium inhibition was 1.81 µg/mL; the Relative Potency (mass), relative to sCD4 was 5.1 fold; the Relative Potency (molarity), relative to sCD4 came out at 22.2 fold. Moreover, the EC50 in assay [2] worked out at 0.64 nM. Also, the EC50 in assay [3] stood at 1.25 nM.
In the case of “CD4-gamma2 chimeric heavy chain homodimer (Fc fusion)”, in assay [1], the IC50 (nM), syncytium inhibition is 40 nM and the IC50 (µg/ml), syncytium inhibition turned out to be 4.03 µg/mL.

The values above are taken from patent US20030211470A1.
